Test results as given in the supplement of paper PMC12042874.
± gives the uncertainty stated by the source.

Experiment: amyloid nucleation score (Sup35N fusion, yeast selection) (log enrichment); library NNK1; higher = more nucleation; inactive = no reads after selection
How it was run: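 The nucleation score equals the log enrichment of output over input reads from DiMSum, centred on the mode score of non-aggregating sequences. It was computed only for sequences with 100 or more input reads. The reads came from Illumina sequencing of plasmid inserts from psi-negative yeast expressing Sup35N fused to peptides of 20 random codons, induced with 100 μM copper sulfate for 24 hours and grown 7 days at 30°C without adenine and uracil.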
Substance LSGGPSGLINAFLYPSPNKW has an amyloid nucleation score of 0.07 ± 0.81.
In the case of LSGTTLIPEYILRSSNPSI, the amyloid nucleation score is reported as 0.147 ± 1.6.
For LSGWHSNLAGRPFPNEMDDG, the amyloid nucleation score was 0.284 ± 0.3.
For LSIFMTITAVESPWVTETVF, the amyloid nucleation score was -0.803 ± 0.4.
For LSIFVF, the amyloid nucleation score was 1.75 ± 0.25.
With LSLSYPYFTFAHSVEMRESI the amyloid nucleation score was 9.039 ± 0.053.
Substance LSMWSRHSMTPRFFLGLTPV has an amyloid nucleation score of 0.766 ± 0.69.
With LSNSSEVPHNSVNINDFVWD the amyloid nucleation score was “inactive”.
Substance LSPHLPSESLGLGPMS has an amyloid nucleation score of -0.921 ± 1.4.
Work on LSPRSSA yielded an amyloid nucleation score of -0.322 ± 0.65.
For LSQIWIKSPGFAKDFTPILC, the amyloid nucleation score was 0.045 ± 0.36.
For LSTNDTSR, the amyloid nucleation score was -0.028 ± 0.53.
For LSTVRLFILEPLYGGPPRNG, the amyloid nucleation score was -1.4 ± 1.4.
Substance LSTYAGCRNAWPELQ has an amyloid nucleation score of -0.52 ± 0.4.
For LSVRDVLYGHVRWVGWGGVK, the amyloid nucleation score was 0.886 ± 0.64.
Work on LSVVSWICRFDALQGHSCVK yielded an amyloid nucleation score of -0.561 ± 0.41.
With LSWFMGLSYIKILYYCHIYD the amyloid nucleation score was -0.142 ± 1.1.
LSWVVVVSNKYGQTMTCVVI showed an amyloid nucleation score of -0.326 ± 0.5.
In the case of LSYLGLLP, the amyloid nucleation score is reported as 0.373 ± 0.62.
LTISRSYRPKWFSVSTGLDS showed an amyloid nucleation score of 0.437 ± 1.4.
Substance LTNFNAWR has an amyloid nucleation score of 0.098 ± 0.47.
LTPNVFAL gave an amyloid nucleation score of -0.345 ± 0.3.
Work on LTRSRGVSRLYIVRGVTDVW yielded an amyloid nucleation score of 0.076 ± 0.43.
With LTSQSLVVNFLLYCTG the amyloid nucleation score was 1.1 ± 0.85.
With LTSWLDYDDISEWHRSDGFR the amyloid nucleation score was 0.987 ± 0.57.
Substance LTTQIVIFFCWVCKDINCCK has an amyloid nucleation score of 4.88 ± 0.081.
LTWLL gave an amyloid nucleation score of 0.992 ± 0.97.
Substance LVAATP has an amyloid nucleation score of 0.898 ± 0.66.
Substance LVCRYFRNRWMPSTRWGVHS has an amyloid nucleation score of 0.711 ± 0.85.
LVCVGTGSGMFEHRAIMMLV showed an amyloid nucleation score of -0.174 ± 0.51.
LVDWVYGWGVVVFAMSQGSE showed an amyloid nucleation score of 0.125 ± 1.4.
With LVFGILHGCFEVVSGMLRVD the amyloid nucleation score was -0.801 ± 0.65.
With LVFVSFIW the amyloid nucleation score was 0.942 ± 0.17.
Work on LVGRRGYFSLVWVPGMSFMR yielded an amyloid nucleation score of 0.289 ± 0.45.
LVHKLFDIRRCPTAFSNWTM gave an amyloid nucleation score of 1.29 ± 0.47.
LVHPSWN showed an amyloid nucleation score of -0.311 ± 0.77.
In the case of LVIPVDRDANGLCYR, the amyloid nucleation score is reported as 0.46 ± 0.6.
In the case of LVLCSFYYDKAWSPESCLME, the amyloid nucleation score is reported as -0.258 ± 0.62.
For LVLSSPRHDMSCSYAHFNMN, the amyloid nucleation score was 1.38 ± 0.43.
With LVLVWVAIHFDRLRIHRFFI the amyloid nucleation score was “inactive”.
In the case of LVMSTRLQTCCWLNVNVGWV, the amyloid nucleation score is reported as 6.04 ± 0.069.
LVNVCFRWNLKCYYQSSEYA showed an amyloid nucleation score of 0.518 ± 0.32.
With LVNWYTQILICTCPGHKLRR the amyloid nucleation score was 8.156 ± 0.053.
With LVPVIKEQFCCHVWVMV the amyloid nucleation score was “inactive”.
With LVQMLTVDCATEKLHLAILS the amyloid nucleation score was 0.567 ± 0.64.
Work on LVRRRSKSRVRVPFLRLSMR yielded an amyloid nucleation score of -0.415 ± 0.72.
For LVRYLCVPSFGKAGYDGEGE, the amyloid nucleation score was -0.86 ± 0.79.
LVSGRRGRRESSNHMVGLLE gave an amyloid nucleation score of 0.968 ± 0.51.
With LVSRRSGHKYYGTTTDCCKN the amyloid nucleation score was “inactive”.
For LVVLL, the amyloid nucleation score was -0.108 ± 0.71.
Work on LVVVGGKLNLTTWNAR yielded an amyloid nucleation score of 0.829 ± 1.
For LVWISVL, the amyloid nucleation score was 0.163 ± 0.32.
With LWCCMTLTIASNDFLNIRCM the amyloid nucleation score was 1.31 ± 0.15.
Work on LWDLKIAGRLNLEGCRCGLW yielded an amyloid nucleation score of 2.1 ± 0.13.
In the case of LWDVRPWRWVWEWENVNYGK, the amyloid nucleation score is reported as 0.382 ± 0.54.
In the case of LWFAHNS, the amyloid nucleation score is reported as 0.462 ± 0.59.
Substance LWFLNRRLVKQSYG has an amyloid nucleation score of 0.606 ± 0.38.
Work on LWLIPRWYDLTEMECFDMYN yielded an amyloid nucleation score of 0.477 ± 0.45.
Work on LWNIIVSIKGRIVESLAPTY yielded an amyloid nucleation score of -0.113 ± 0.51.
For LWNIMVLDIWDRDLCSCIWG, the amyloid nucleation score was 0.756 ± 0.56.
In the case of LWYTFMSLHLGTVLEVRK, the amyloid nucleation score is reported as “inactive”.
In the case of LYAHYRADVHEEKSLYYVIA, the amyloid nucleation score is reported as 0.101 ± 0.23.
Substance LYAVLDILVMFMLMSPP has an amyloid nucleation score of 0.253 ± 0.36.
For LYCFIMDFLLGFKHCMCKGV, the amyloid nucleation score was 1.55 ± 0.44.
LYDLNIKWWRGASLVECECL gave an amyloid nucleation score of 0.139 ± 0.41.
For LYGSVKNIKRLPHCFMLCLC, the amyloid nucleation score was 0.616 ± 0.36.
In the case of LYHWYLRR, the amyloid nucleation score is reported as “inactive”.
LYIQSSNYRDMVYPYSVVPL gave an amyloid nucleation score of 1.95 ± 0.28.
LYLEARGGRVSYHQLFFGER showed an amyloid nucleation score of 2.45 ± 0.18.
Substance LYLIGTILNLIGY has an amyloid nucleation score of 5.746 ± 0.045.
In the case of LYNVSSLGSANKSFLGRSS, the amyloid nucleation score is reported as 1.39 ± 0.76.
In the case of LYPLMEGDRKKL, the amyloid nucleation score is reported as 0.981 ± 0.47.
Substance LYPNRAGGRLAGLGGMPYE has an amyloid nucleation score of 0.085 ± 0.44.
With LYRFWCYALST the amyloid nucleation score was “inactive”.
In the case of LYSIVVKYCYQYLSRACNYN, the amyloid nucleation score is reported as 0.637 ± 0.36.
In the case of LYTCCSTYVCSNLGRNVK, the amyloid nucleation score is reported as 7.074 ± 0.06.
Substance LYTVTTKR has an amyloid nucleation score of -0.119 ± 0.31.
Work on LYVDYQCIGSFVTIYKYITP yielded an amyloid nucleation score of 0.889 ± 0.27.
In the case of LYVFSEKIFCRNGFSSYISL, the amyloid nucleation score is reported as 0.855 ± 0.74.
With LYVVSSVFLGEPVRKQVYQI the amyloid nucleation score was -0.678 ± 0.96.
Work on LYYNASTAIELNLEYSIKWL yielded an amyloid nucleation score of 0.17 ± 0.8.
In the case of MAFMHLIISYCRYIF, the amyloid nucleation score is reported as 0.341 ± 0.74.
MAPEFCIEDKIRVVPFLIPI gave an amyloid nucleation score of 0.197 ± 0.89.
Substance MASTMPC has an amyloid nucleation score of -0.654 ± 1.
In the case of MAWDLT, the amyloid nucleation score is reported as 1.52 ± 0.22.
